Experimental data reported in paper PMC11109203 (2024).
Positions count from the first letter of the chain named. Names and notes keep the numbering of the source.

B1: Sad1_(1-169) (domain or fragment)
chain: MFTNTPVGGKRERQNGAHPAWSTLGANSAQIHQNTADLASKMHKLRYTKIRSPPTRVSIESITPKQRFPAPNFEQAYHSNIRYEQEESDNEEFENVVKNGHEASTNVFYESDGDDEEFVNEEYENSIDEESDDEGYSLNEDTTATNASFRYPMNQRSTRKSQFYSSKFK
B2: FITC labeled Clr3 (enzyme)
chain: MLASNSDGASTSVKPSDDAVNTVTPWSILLTNNKPMSGSENTLNNESHEMSQILKKSGLCYDPRMRFHATLSEVDDHPEDPRRVLRVFEAIKKAGYVSNVPSPSDVFLRIPAREATLEELLQVHSQEMYDRVTNTEKMSHEDLANLEKISDSLYYNNESAFCARLACGSAIETCTAVVTGQVKNAFAVVRPPGHHAEPHKPGGFCLFNNVSVTARSMLQRFPDKIKRVLIVDWDIHHGNGTQMAFYDDPNVLYVSLHRYENGRFYPGTNYGCAENCGEGPGLGRTVNIPWSCAGMGDGDYIYAFQRVVMPVAYEFDPDLVIVSCGFDAAAGDHIGQFLLTPAAYAHMTQMLMGLADGKVFISLEGGYNLDSISTSALAVAQSLLGIPPGRLHTTYACPQAVATINHVTKIQSQYWRCMRPKHFDANPKDAHVDRLHDVIRTYQAKKLFEDWKITNMPILRDSVSNVFNNQVLCSSNFFQKDNLLVIVHESPRVLGNGTSETNVLNLNDSLLVDPVSLYVEWAMQQDWGLIDINIPEVVTDGENAPVDILSEVKELCLYVWDNYVELSISKNIFFIGGGKAVHGLVNLASSRNVSDRVKCMVNFLGTEPLVGLKTASEEDLPTWYYRHSLVFVSSSNECWKKAKRAKRRYGRLMQSEHTETSDMMEQHYRAVTQYLLHLLQKARPTSQ
modifications: FITC label
B3: Sad1_(60-169) (domain or fragment)
chain: ESITPKQRFPAPNFEQAYHSNIRYEQEESDNEEFENVVKNGHEASTNVFYESDGDDEEFVNEEYENSIDEESDDEGYSLNEDTTATNASFRYPMNQRSTRKSQFYSSKFK
B4: Sad1_(60-169) F118R (domain or fragment)
chain: B3 chain with F59R
B5: Sad1_(60-169) with charge-reverse mutations of D114 and E117 (domain or fragment)
chain: B3 chain with D55R, E58R

Tests used:
FITC labeled Clr3 = target: B2; assay: MST
[1] = target: Sad1_(1-169)-H2AB complex (S. pombe, UniProt Q09825 1-169; P04913 32-126; P04909 15-108); assay: MST; mixture of Sad1 and H2AB
Sad1_(1-169)-5R = Sad1_(1-169)-5R (S. pombe, UniProt Q09825 1-169, D114R | E117R | F118R | E121R | E122R); assay: MST; mixture of Sad1-5R and H2AB
H2AB with H2B Y42R = H2AB with H2B Y42R (S. pombe, UniProt P04913 32-126; P04909 15-108, Y42R); assay: ITC
[2] = target: S. pombe H2AB fusion protein (H2B_(32-126)-H2A_(15-108)) (S. pombe, UniProt P04913 32-126; P04909 15-108); assay: ITC
H2AB with H2A R79E = H2AB with H2A R79E (S. pombe, UniProt P04913 32-126; P04909 15-108, R79E); assay: ITC

Q: For B1, which Kd (FITC labeled Clr3) is on record?
A: 42.9 µM

Q: For B2, which Kd [1] is on record?
A: 10.3 µM

Q: And the Kd (Sad1_(1-169)-5R)?
A: 47.2 µM

Q: What does the source list for B3?
A: Kd (H2AB with H2B Y42R): 44.8 µM; Kd [2]: 9.1 µM; Kd (H2AB with H2A R79E): 90.1 µM

Q: B4 was tested. Which Kd [2] did it give?
A: > 200 µM

Q: Which Kd [2] does the source give for B5 here?
A: 73.5 µM
